Data set [1] concerns histone H3 phosphorylation at Ser 10 (H3 pS10). The data set can be described thus: H3 pS10 immunofluorescence in HeLa cells infected with the ospF strain, kinase inhibitors. Conditions: 60 min pretreatment with both U0126 (10 μM) and SB203180 (2.5 μM), infection 30 min. In kind it is cell-based.
Description: Indirect immunofluorescence detection was performed with anti-phospho-histone H3 S10 polyclonal antibody. […] Cells were left untreated (ns) or infected with the ospF strain for 30 min. IF was performed with anti-H3 methyl K9-pS10 antibody.
Indirect immunofluorescence. Cells were fixed with 3.7% paraformaldehyde in PBS for 10 min, permeabilized with 0.5% Triton-X in PBS. The following antibodies were used: anti-phospho-p42/p44 antibody (Sigma); anti-p42/p44, anti-phospho-histone H3 S10 (Upstate Cell Signaling), anti-acetyl histone H4 (Lys14) (Upstate Biotechnology) antibodies.
Data set [2] concerns the target T1, phospho JNK1 Histidine (Homo sapiens, UniProt P45983).
T1 construct: His
Nature of the data set: In vitro phosphatase assay on phospho JNK1 (Western blot). Conditions: purified phospho-MAP kinase, 50 nM. It counts as biochemical.

Data set [3] deals with T2, phospho p38-GST (Homo sapiens, UniProt Q16539).
T2 construct: GST
The data set can be described thus: In vitro phosphatase assay on phospho p38 (Western blot). The conditions noted are these: purified phospho-MAP kinase, 50 nM. In kind it is biochemical. A general note: Immunoblotting shows a protein as a band on a membrane.

Data set [4] relates to IL-12. Nature of the data set: Murine model of pulmonary infection, lung cytokines by ELISA. It counts as in vivo, mice. Conditions: lungs infected with M90T or ospF strain, 24 hours post-infection (FIG. 10). The procedure: The cytokine/chemokine network induced upon infection with Shigella flexneri was analyzed by comparing the profiles obtained upon infection with the invasive strain carrying the virulence plasmid (INV+) and the non-invasive, plasmidless strain (INV−). The murine model of pulmonary infection was used since it was the only valid model to analyze the specific host immune response upon Shigella infection. Following infection with INV−, a Th1 type-network (IL-12, IL-18, IFN-γ, CCL9, CCL10, CCL13, and CCL4) was induced. In contrast, a Th2/Tr1 profile (IL-10, CCL1, CCL24 and CCL2) was induced upon infection with INV+. The difference observed was not due to the bacterial dose used for the infection, but was dependent on the presence or absence of the virulence plasmid.
Some of these bacterial effectors are injected within the host cells by a type III secretion apparatus. Use of different bacterial mutants, has highlighted that the bacterial effectors involved in the immunomodulation were effectors secreted by the type III-secretion apparatus. Finally, OspF, a type III-secreted bacterial effector was responsible fore the control of IL-12 production (FIG. 10).
In general terms: ELISA stands for enzyme-linked immunosorbent assay.

The subject of data set [5] is histone H3 phosphorylation at Ser 10 (H3 pS10). The data set can be described thus: H3 pS10 induced by okadaic acid in HeLa cells overexpressing OspF. It counts as cell-based. The conditions noted are these: HeLa transfected with pRK5myc-OspF, 200 nM okadaic acid 3 hours. The procedure: (§1) (A) HeLa cells were left untreated (ns) or infected with the WT or the ospF strain at the indicated time. Indirect immunofluorescence detection was performed with anti-phospho-histone H3 S10 polyclonal antibody. (B) HeLa cells were synchronized by a double thymidine block (2 mM thymidine) and left untreated (ns) or infected with the WT or the ospF strain at the indicated time. Immunoblots were probed with anti-H3 phospho S10 (H3 pS10), anti-H3 methyl K9-phospho S10(H3 metK9-pS10), anti-H3 phospho S10. acetyl-K14 (H3 p-S10/Ac-K14), anti Histone H3 polyclonal anti-pp38 and pErk antibodies. (C) HeLa cells were transfected with pRK5myc-OspF vector and treated with 200 nM okadaic acid for 3 hours. IF was performed with anti-myc (red) and anti-H3 methyl K9-pS10 (green) antibodies. […] (D) One micogram of calf-thymus histone (Sigma) was incubated with 300 ng of His-OspF or with 120 U of λ phosphatase for 2 hours at 30° C. Western blot was performed with an anti-metK9-pS10 antibody. (E) One micogram of peptide metK9-S10 was spotted onto a nitrocellulose membrane that was incubated with buffers, 5 μg/ml of OspF, or 2000 U/ml of lambda phosphatase for 2 hours at 30° C. Western blot was performed with an anti-metK9-pS10 antibody. (F) HeLa cells were pretreated for 60 min with either the MEK1 inhibitor U0126 (10 μM) or the p38 inhibitor SB203180 (2.5 μM) or both. […]

For data set [6], the system named is pErk2-GST. The data set can be described thus: In vitro phosphatase assay on phospho-Erk2 (Western blot). The conditions noted are these: purified protein, Western blot with anti phospho-Erk.
Data set [7] deals with histone H3 purified from calf thymus. Nature of the data set: In vitro dephosphorylation of histone H3 / H3 tail peptides. It counts as biochemical. The conditions noted are these: 2 hours at 30° C., even when enzyme concentration increased 100 fold. The procedure:
as §1

For data set [8], the system named is ^33P-labeled Erk2. Nature of the data set: 33P-labeled Erk2 phosphatase assay, steady state kinetics. Conditions: 100 nM phosphatase, pH 8, 30° C., 10 minutes, Michaelis-Menten fit.
Description: Preparation of the ^33P-labeled Erk2 kinase substrate. The in vitro phosphorylation of the GST-Erk2 fusion protein was carried out by incubating 500 μg purified GST-Erk2 coupled to beads with 20 μg His6-tagged activated MEK1 (Upstate Cell Signaling) in a kinase buffer (50 mM Tris pH 7.5, 2 mM DTT, 10 mM MgCl2) with 100 μM ATP (γ-3P ATP, 3000 Ci/mmol) for 2 hours at 30° C. The beads were washed 5 times with 30 ml of 1× PBS and eluted in 50 mM Tris pH 8, 10 mM glutathione, and 10% glycerol. The fractions were dialyzed overnight to remove residual ATP in 50 mM Tris pH8, 50 mM NaCl, and 10% glycerol.
In vitro phosphatase assay. […] Therefore, the reaction was initiated by the addition of the phosphatase, incubated for 10 minutes at 30° C. and terminated by adding 200 μl cold 20% trichloroacetic acid. The samples were centrifuged at 10,000×g and 200 μl of the supernatant was mixed with 5 ml of scintillation fluid for taking radioactivity measurements. The product generated (inorganic phosphate) was kept below 5% of the initial substrate concentrations. Reactions containing the Erk2 substrate and buffer without phosphatase was used as a blank for each data point. The data were fitted to the Michaelis-Menten equation using the software Kaleidagraph.
The kinetic parameters were determined by following the production of radioactive inorganic phosphate.
Data set [9] has as its system NF-κB reporter construct. The data set can be described thus: TNF-α-induced NF-κB reporter construct in Caco 2 cells. In kind it is cell-based, human. Conditions: overexpression in Caco 2 cells. The source says:
In addition to the classical MAPK-dependent target genes, OspF also repressed expression of some NF-κB-dependent chemokine genes such as IL-8. The IL-8 promoter contains an NF-κB binding site essential for expression of this gene (Hoffmann et al., 2002). Therefore, the inventors looked whether OspF interferes with the NF-κB signaling pathway. […] (FIG. 5E).

For data set [10], the system named is p38 MAP kinases. Nature of the data set: p38 phosphorylation in transfected HeLa cells stimulated by TNF. Conditions: TNF stimulation. In kind it is cell-based.
The subject of data set [11] is endogenous Erk. Nature of the data set: Erk phosphorylation in transfected HeLa cells stimulated by PMA. The conditions noted are these: HeLa cells transfected with expression plasmid, PMA stimulation.
For data set [12], the system named is p46 and p54 JNK kinases. Nature of the data set: JNK phosphorylation in transfected HeLa cells stimulated by TNF. In kind it is cell-based. Conditions: TNF stimulation.

T2 sequence (Q16539 whole entry): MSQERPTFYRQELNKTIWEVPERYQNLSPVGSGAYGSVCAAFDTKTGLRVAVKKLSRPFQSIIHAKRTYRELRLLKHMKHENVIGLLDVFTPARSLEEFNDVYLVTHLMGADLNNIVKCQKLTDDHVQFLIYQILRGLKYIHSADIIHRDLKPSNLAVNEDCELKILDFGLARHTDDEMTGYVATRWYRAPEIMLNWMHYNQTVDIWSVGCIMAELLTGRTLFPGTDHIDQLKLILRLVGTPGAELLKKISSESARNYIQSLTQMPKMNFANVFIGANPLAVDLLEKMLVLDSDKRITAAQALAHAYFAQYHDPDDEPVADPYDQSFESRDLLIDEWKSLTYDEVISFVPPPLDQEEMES
T1 sequence (P45983 whole entry): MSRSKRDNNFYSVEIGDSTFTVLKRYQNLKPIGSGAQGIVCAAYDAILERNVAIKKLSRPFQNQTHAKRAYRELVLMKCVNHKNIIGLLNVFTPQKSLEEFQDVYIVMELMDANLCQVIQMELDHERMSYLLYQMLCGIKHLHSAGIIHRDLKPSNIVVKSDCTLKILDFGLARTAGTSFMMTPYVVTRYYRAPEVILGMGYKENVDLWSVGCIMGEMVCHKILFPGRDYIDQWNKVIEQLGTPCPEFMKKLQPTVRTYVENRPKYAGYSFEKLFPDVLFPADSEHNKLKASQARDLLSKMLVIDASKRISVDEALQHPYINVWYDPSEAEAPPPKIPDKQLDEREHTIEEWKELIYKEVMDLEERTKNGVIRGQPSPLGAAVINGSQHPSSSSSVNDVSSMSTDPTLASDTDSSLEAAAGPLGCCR

With `C[S+]([O-])c1ccc(-c2nc(-c3ccc(F)cc3)c(-c3ccncc3)[nH]2)cc1` (stereo not shown) [SB 203180], in [1], the “H3 pS10 signal induced by the ospF strain” value was “fully inhibited”.

For `N#CC(=C(/N)Sc1ccccc1N)/C(C#N)=C(\N)Sc1ccccc1N` [U0126], the “H3 pS10 signal induced by the ospF strain” value in [1] is on record as “fully inhibited”.

B1: OspF: protein encoded by the Shigella ospF gene, a dual specific phosphatase; NCBI Accession CAC05773 (protein)
chain: MPIKKPCLKLNLDSLNVVRSEIPQMLSANERLKNNFNILYNQIRQYPAYYFKVASNVPTYSDICQSFSVMYQGFQIVNHSGDVFIHACRENPQSKGDFVGDKFHISIAREQVPLAFQILSGLLFSEDSPIDKWKITDMNRVSQQSRVGIGAQFTLYVKSDQECSQYSALLLHKIRQFIMCLESNLLRSKIAPGEYPASDVRPEDWKYVSYRNELRSDRDGSERQEQMLREEPFYRLMIE
As to B1, the “dephosphorylation of phospho JNK1” value in [2] was “failed to dephosphorylate”. In addition, in data set [3], the “dephosphorylation of phospho p38” value is recorded as “directly dephosphorylated”. The “IL-12 production in vivo” value in [4] is “down regulated”. Moreover, the “induction of H3 pS10 by okadaic acid” value in [5] is “efficiently prevented induction”. Besides, in [6], the “dephosphorylation of phospho-Erk2” value is given as “directly dephosphorylated”. Further, in data set [7], the “direct dephosphorylation of histone H3 (metK9-pS10 / pS10)” value is reported as “did not directly dephosphorylate”. Further, in data set [8], the “Vmax of Erk2 dephosphorylation” value was determined as 9.89 pM/s and the “kcat of Erk2 dephosphorylation” value is 0.0001 s⁻¹. In addition, the Km in data set [8] (read-out: Km of Erk2 dephosphorylation) was found to be 0.204 µM. Moreover, the “TNF-α-induced activation of NF-κB reporter” value in [9] is given as “did not impair”.

B2: myc-labelled OspF: OspF with a myc label expressed from plasmid pRK5myc-OspF (protein)
chain: B1 chain
modifications: left off: small tags and cut ends
Consider B2, for which the “effect on p38 phosphorylation in cells” value in data set [10] is listed as “prevented phosphorylation”. In addition, in [11], the “effect on Erk phosphorylation / ability to dephosphorylate Erk in cells” value is given as “prevented phosphorylation”. The “effect on JNK phosphorylation in cells” value in data set [12] was “not”.

B3: MKP1: known mammalian dual specific phosphatase used as a control (protein, UniProt P28562 1-367, looked up)
Dual specificity protein …: MVMEVGTLDAGGLRALLGERAAQCLLLDCRSFFAFNAGHIAGSVNVRFSTIVRRRAKGAMGLEHIVPNAELRGRLLAGAYHAVVLLDERSAALDGAKRDGTLALAAGALCREARAAQVFFLKGGYEAFSASCPELCSKQSTPMGLSLPLSTSVPDSAESGCSSCSTPLYDQGGPVEILPFLYLGSAYHASRKDMLDALGITALINVSANCPNHFEGHYQYKSIPVEDNHKADISSWFNEAIDFIDSIKNAGGRVFVHCQAGISRSATICLAYLMRTNRVKLDEAFEFVKQRRSIISPNFSFMGQLLQFESQVLAPHCSAEAGSPAMAVLDRGTSTTTVFNFPVSIPVHSTNSALSYLQSPITTSPSC
Consider B3, for which the “kcat of Erk2 dephosphorylation” value in [8] is 0.0006 s⁻¹.

By Km is commonly meant the concentration of substrate that gives half-maximal velocity.

Values taken from patent publication US8092989B2, “Targeting the histone code as a bacterial strategy for selectively modulating gene expression” (Institut Pasteur, priority 2005, dated 2012).
